System: CC[C@H]1C[C@@H]2C[C@H]3c4[nH]c5ccc(O)cc5c4CCN(C2)[C@@H]13
Experiment: HPLC-MS of ibogaine formation, Michaelis-Menten fit
Format: biochemical, Tabernanthe iboga
Conditions: SAM, HEPES, pH 9 (relative-rate assays adjusted to optimum), 30 °C, 25 min
From the text: HPLC-MS of ibogaine formation, Michaelis-Menten fit on N10OMT (noribogaine-10-O-methyltransferase; OMT candidate 1)

Substance: N10OMT (noribogaine-10-O-methyltransferase; OMT candidate 1) (Tabernanthe iboga)
- Km: 73.6 ± 28.5 µM
- Vmax: 0.00084 µmol/min/mg
- kcat: 0.000548 ± 7.23e-05 s⁻¹
- kcat/Km: 7.45 ± 3.05 M⁻¹ s⁻¹
